{
  "source": "paper PMC2925389",
  "binders": {"B1": {"name": "D-1 21/41-mer (dsDNA)", "DNA 1": "CGCAGCCGTCCAACCAACTCA", "DNA 2": "GGACGGCATTGGATCGACGATGAGTTGGTTGGACGGCTGCG"}},
  "key": {"[1]": {"target": "T1, yPolη full-length (Saccharomyces cerevisiae, UniProt Q04049 1-632)", "T1 sequence": "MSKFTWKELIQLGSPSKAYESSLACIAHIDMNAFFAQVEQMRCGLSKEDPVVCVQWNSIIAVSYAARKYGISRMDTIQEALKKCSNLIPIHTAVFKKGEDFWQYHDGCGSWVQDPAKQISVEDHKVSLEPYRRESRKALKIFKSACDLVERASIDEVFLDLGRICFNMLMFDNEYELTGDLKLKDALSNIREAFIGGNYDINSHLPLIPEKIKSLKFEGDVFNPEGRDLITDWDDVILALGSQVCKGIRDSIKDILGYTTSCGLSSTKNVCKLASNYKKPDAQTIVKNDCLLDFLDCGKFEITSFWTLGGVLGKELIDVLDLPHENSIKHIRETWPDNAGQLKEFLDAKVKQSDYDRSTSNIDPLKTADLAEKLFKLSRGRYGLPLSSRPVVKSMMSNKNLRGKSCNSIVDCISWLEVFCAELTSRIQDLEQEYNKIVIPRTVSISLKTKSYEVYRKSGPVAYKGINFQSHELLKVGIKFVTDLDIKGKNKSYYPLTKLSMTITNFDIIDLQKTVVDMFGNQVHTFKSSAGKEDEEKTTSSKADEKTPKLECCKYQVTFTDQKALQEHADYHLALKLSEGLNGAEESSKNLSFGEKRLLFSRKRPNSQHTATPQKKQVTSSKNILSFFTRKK", "assay": "EMSA; koff 0.0041 ± 0.0008 s-1 (DNA trap); 23°C, buffer A (composition not in material; without BSA for fluorescence); EMSA 10 nM DNA, 10-450 nM protein, 20 min, 4.5% native gel, 40 mM Tris in running bu"}, "[2]": {"target": "T2, yPolη truncated (catalytic core) (Saccharomyces cerevisiae, UniProt Q04049 1-513)", "T2 sequence": "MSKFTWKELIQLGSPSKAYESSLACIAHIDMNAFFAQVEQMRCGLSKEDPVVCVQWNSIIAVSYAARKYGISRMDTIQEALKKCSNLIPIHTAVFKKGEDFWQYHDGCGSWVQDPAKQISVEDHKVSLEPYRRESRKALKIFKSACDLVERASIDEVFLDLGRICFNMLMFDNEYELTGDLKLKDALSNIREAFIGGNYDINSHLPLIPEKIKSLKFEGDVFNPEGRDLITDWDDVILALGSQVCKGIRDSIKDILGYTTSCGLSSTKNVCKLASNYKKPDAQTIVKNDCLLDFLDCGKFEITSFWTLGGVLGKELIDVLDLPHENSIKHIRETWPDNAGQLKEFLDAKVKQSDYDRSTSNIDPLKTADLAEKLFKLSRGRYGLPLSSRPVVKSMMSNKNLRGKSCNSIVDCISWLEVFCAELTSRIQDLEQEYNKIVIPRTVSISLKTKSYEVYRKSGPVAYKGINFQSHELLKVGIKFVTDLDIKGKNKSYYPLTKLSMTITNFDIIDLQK", "assay": "EMSA; koff 0.008 ± 0.001 s-1 (DNA trap); 23°C, buffer A (composition not in material; without BSA for fluorescence); EMSA 10 nM DNA, 10-450 nM protein, 20 min, 4.5% native gel, 40 mM Tris in running bu"}},
  "data": [
    {"binder": "B1", "values": [
      {"measurement": "Kd", "setting": "[1]", "result": "16 ± 1", "unit": "nM"},
      {"measurement": "Kd", "setting": "[2]", "result": "34 ± 3", "unit": "nM"}
    ]}
  ]
}
